B1: Azoarcus group I ribozyme (parent)
chain: GUGCCUUGCGCCGGGAAACCACGCAAGGGAUGGUGUCAAAUUCGGCGAAACCUAAGCGCCCGCCCGGGCGUAUGGCAACGCCGAGCCAAGCUUCGGCGCCUGCGCCGAUGAAGGUGUAGAGACUAGACGGCACCCACCUAAGGCAAACGCUAUGGUGAAGGCAUAGUCCAGGGAGUGGCGAAAGUCACACAAACCGG

Variants of: B1
Experiment: reverse-splicing fitness (ratio to wild type); higher = more active; in vitro selection; Mg2+ level not given
Method in brief: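 An in vitro group I ribozyme library with randomized positions was T7-transcribed and gel-purified. In triplicate, 10 pmol RNA in EPPS pH 7.5 was reacted with 50 pmoles of a 30-nt RNA substrate for 1 h at 37 °C across several added MgCl2 levels (1–48 mM), then stopped with EDTA. Products were reverse transcribed from a substrate-complementary primer, PCR-amplified and sequenced (HiSeq 4000). Fitness is a variant's read proportion after selection over that before, normalised to wild type.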

Variant	reverse-splicing fitness
A120G C150U C169U U176C	0.159
A120G C150U C169U U176A	0.136
A120G C150U C169U U176G	0.011
A120U A145C C150G C169G U176C	0.00281
A120U A145C C150G C169G U176G	0.00252
A120U A145C C150G C169G U176A	0.00551
A120G C169A U176C	0.189
A120G C169A U176G	0.00677
A120G C169A U176A	0.112
A120U A145U C169U U176G	0.0134
A120U A145U C169U U176A	0.0858
A120U A145U C169U U176C	0.133
A120U A145G C150G	0.25
A120U A145G C150A	0.361
A120U A145G C150U	0.841
A120G A145U C169U U176C	0.194
A120G A145U C169U U176G	0.0221
A120G A145U C169U U176A	0.174
A120U A145G C150A U176C	0.218
A120U A145G C150A U176G	0.063
A120U A145G C150A U176A	0.222

Variant	reverse-splicing fitness
A120U C150G U176A	0.0739
A120U C150G U176C	0.115
A120U C150G U176G	0.0108
A120G C150A C169G	0.0903
A120G C150A C169A	0.0602
A120G C150A C169U	0.071
A120G A145U U176C	0.269
A120G A145U U176A	0.197
A120G A145U U176G	0.0162
A120G C150G C169U U176G	0.00662
A120G C150G C169U U176C	0.0422
A120G C150G C169U U176A	0.0245
A120U C150U C169G U176A	0.0257
A120U C150U C169G U176G	0.00278
A120U C150U C169G U176C	0.0569
A120U A145U C150G	0.267
A120U A145U C150A	0.215
A120U A145U C150U	0.785
A120U A145G C150A C169A U176C	0.00372
A120U A145G C150A C169A U176A	0.00533
A120U A145G C150A C169A U176G	0.00241

Variant	reverse-splicing fitness
A120G C169G U176C	0.261
A120G C169G U176A	0.209
A120G C169G U176G	0.0117
A120U A145U C150A C169A	0.00309
A120U A145U C150A C169G	0.0282
A120U A145U C150A C169U	0.0358
A120U C150U C169U U176G	0.00872
A120U C150U C169U U176C	0.083
A120U C150U C169U U176A	0.0605
A120U A145C C169G	0.231
A120U A145C C169U	0.263
A120U A145C C169A	0.0147
A120G C150U C169G	0.419
A120G C150U C169U	0.284
A120G C150U C169A	0.29
A120U A145G C150A C169U	0.0612
A120U A145G C150A C169G	0.0459
A120U A145G C150A C169A	0.00622
A120G C150A C169A U176A	0.0363
A120G C150A C169A U176C	0.0393
A120G C150A C169A U176G	0.00569

Variant	reverse-splicing fitness
A120U A145U C150U C169U U176A	0.059
A120U A145U C150U C169U U176G	0.00903
A120U A145U C150U C169U U176C	0.0952
A120U A145G C150A C169G U176A	0.012
A120U A145G C150A C169G U176G	0.00259
A120U A145G C150A C169G U176C	0.0214
A120G C169U U176G	0.0211
A120G C169U U176A	0.179
A120G C169U U176C	0.204
A120G C150U U176G	0.0157
A120G C150U U176C	0.164
A120G C150U U176A	0.125
A120U A145C C150U C169A U176G	0.00156
A120U A145C C150U C169A U176C	0.00274
A120U A145C C150U C169A U176A	0.00179
A120U A145U C169A U176C	0.00507
A120U A145U C169A U176G	0.00158
A120U A145U C169A U176A	0.00339
A120U C169A	0.0174
A120U C169U	0.257
A120U C169G	0.262

— the RNAGym collection of RNA variant scans (doi:10.1093/molbev/msab373)
